Laboratory results from US20210403864A1, “METHODS AND COMPOSITIONS FOR TREATING ACTIVATED G-ALPHA Q MUTANT CANCERS OR MELANOCYTIC MALIGNANCIES” (Memorial Sloan Kettering Cancer Center, priority 2018, published 2021).

Tests used:
[1] = system: human Mel202 uveal melanoma xenografts; assay: In vivo anti-tumor activity, xenografts in SCID mice; settings: MEK162 10 mg/kg P.O. b.i.d.; YM-254890 2.5 mg/kg i.p. q.d.; over 20 days; single agents vs vehicle, combination vs vehicle and single agents
Method: To evaluate the effect of YM-254890 and binimetinib (MEK162) in vivo, Mel202 uveal melanoma xenografts were established in SCID mice, and the mice were treated with vehicle only, 10 mg/kg MEK162 (P.O., b.i.d.), YM-254890 (2.5 mg/kg i.p., q.d.) or a combination of MEK162 and YM-254890. Tumor volumes were measured over 20 days.

[2] = biological target: GNAQ^Q209L (human GNAQ α-subunit, Q209L mutant) (human) (UniProt P50148); assay: cell-based or functional assay
[3] = biological target: GNAQ^R183Q (human GNAQ α-subunit, R183Q mutant) (human) (UniProt P50148); assay: cell-based or functional assay
[4] = biological target: GNAQ^Q209L/P (endogenous, in three human UVM cell lines) (human) (UniProt P50148); assay: cell-based or functional assay

GNAQ^R183Q (human GNAQ α-subunit, R183Q mutant) (human), sequence (P50148 whole entry R183Q): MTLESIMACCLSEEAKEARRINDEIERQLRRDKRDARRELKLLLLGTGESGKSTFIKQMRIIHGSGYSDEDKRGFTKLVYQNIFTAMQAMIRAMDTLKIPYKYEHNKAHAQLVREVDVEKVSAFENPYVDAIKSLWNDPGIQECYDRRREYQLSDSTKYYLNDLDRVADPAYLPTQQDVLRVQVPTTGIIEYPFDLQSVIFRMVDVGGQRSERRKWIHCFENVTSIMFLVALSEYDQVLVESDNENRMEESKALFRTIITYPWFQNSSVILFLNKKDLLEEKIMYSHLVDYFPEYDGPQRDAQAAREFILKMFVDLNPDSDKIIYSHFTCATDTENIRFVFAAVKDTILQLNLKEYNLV
GNAQ^Q209L (human GNAQ α-subunit, Q209L mutant) (human), sequence (P50148 whole entry Q209L): as the sequence (P50148 whole entry R183Q) above, with Q183R, Q209L counted along it

Row | Compound | tumor volume [1] | IP1 accumulation, mutant-transformed melan-a cells, 24-hour treatment (fold less sensitive) [2] | IP1 accumulation after 24-hour treatment with variable doses of YM, transfected HEK293T cells (fold less sensitive) [3] | IP1 accumulation, mutant-transformed melan-a cells, 24-hour treatment (fold less sensitive) [3] | IC50 of cell proliferation, human UVM cell lines (CellTiter-glo 2.0, 5 days) [4] [nM]
1 | Cn1cnc2c(F)c(Nc3ccc(Br)cc3F)c(C(=O)NOCCO)cc21 [MEK162, binimetinib] | moderate reduction | – | – | – | –
2 | YM-254890 (peptide) | – | 10 | 20 | 10 | 100
